Experimental data: the supplement of paper PMC11246515
± gives the standard deviation of the averaged measurements.

Assay: total protein half-life in vivo (active degradation + dilution); higher = more stable protein
[1] = E. coli NCM3722 delta-clpP delta-lon delta-hslV, growth: N-lim chemostat, doubling time 6 h
[2] = E. coli NCM3722 delta-clpP, growth: N-lim chemostat, doubling time 6 h
[3] = E. coli NCM3722 delta-hslV, growth: N-lim chemostat, doubling time 6 h
[4] = E. coli NCM3722 delta-lon, growth: N-lim chemostat, doubling time 6 h
[5] = E. coli NCM3722 delta-smpB, growth: N-lim chemostat, doubling time 6 h
[6] = wild type E. coli NCM3722, growth: C-lim chemostat, doubling time 3 h
[7] = wild type E. coli NCM3722, growth: C-lim chemostat, doubling time 6 h
[8] = wild type E. coli NCM3722, growth: C-lim chemostat, doubling time 12 h
[9] = wild type E. coli NCM3722, growth: N-lim chemostat, doubling time 6 h
[10] = wild type E. coli NCM3722, growth: N-lim chemostat, doubling time 12 h
[11] = wild type E. coli NCM3722, growth: P-lim chemostat, doubling time 6 h
[12] = wild type E. coli NCM3722, growth: P-lim chemostat, doubling time 12 h

Row | Sequence | total protein half-life in vivo [1] | total protein half-life in vivo [2] | total protein half-life in vivo [3] | total protein half-life in vivo [4] | total protein half-life in vivo [5] | total protein half-life in vivo [6] | total protein half-life in vivo [7] | total protein half-life in vivo [8] | total protein half-life in vivo [9] | total protein half-life in vivo [10] | total protein half-life in vivo [11] | total protein half-life in vivo [12]
1 | MKIKAVGAYSAKQPLEPMDITRREPGPNDVKIEIAYCGVCHSDLHQVRSEWAGTVYPCVPGHEIVGRVVAVGDQVEKYAPGDLVGVGCIVDSCKHCEECEDGLENYCDHMTGTYNSPTPDEPGHTLGGYSQQIVVHERYVLRIRHPQEQLAAVAPLLCAGITTYSPLRHWQAGPGKKVGVVGIGGLGHMGIKLAHAMGAHVVAFTTSEAKREAAKALGADEVVNSRNADEMAAHLKSFDFILNTVAAPHNLDDFTTLLKRDGTMTLVGAPATPHKSPEVFNLIMKRRAIAGSMIGGIPETQEMLDFCAEHGIVADIEMIRADQINEAYERMLRGDVKYRFVIDNRTLTD | 4.84 ± 0.2 h | 4.8 ± 0.18 h | 4.92 ± 0.16 h | 5.05 ± 0.38 h | 4.66 ± 0.61 h | 3.225 ± 0.021 h | 5.86 ± 0.58 h | 11 ± 0.91 h | 5.04 ± 0.17 h | 8.89 ± 0.21 h | 6.23 ± 0.59 h | 12 ± 0.78 h
2 | MKIKNILLTLCTSLLLTNVAAHAKEVKIGMAIDDLRLERWQKDRDIFVKKAESLGAKVFVQSANGNEETQMSQIENMINRGVDVLVIIPYNGQVLSNVVKEAKQEGIKVLAYDRMINDADIDFYISFDNEKVGELQAKALVDIVPQGNYFLMGGSPVDNNAKLFRAGQMKVLKPYVDSGKIKVVGDQWVDGWLPENALKIMENALTANNNKIDAVVASNDATAGGAIQALSAQGLSGKVAISGQDADLAGIKRIAAGTQTMTVYKPITLLANTAAEIAVELGNGQEPKADTTLNNGLKDVPSRLLTPIDVNKNNIKDTVIKDGFHKESEL | 4.59 ± 0.8 h | 5.33 ± 0.069 h | 5.88 ± 0.42 h | 4.43 h | 6.1 ± 0.13 h | 2.99 ± 0.08 h | 5.41 ± 0.45 h | 8.38 ± 1.2 h | 5.53 ± 0.86 h | 11.2 ± 2.2 h | 5.733 ± 0.025 h | 11.9 ± 0.15 h
3 | MKIKSIRKAVLLLALLTSTSFAAGKNVNVEFRKGHSSAQYSGEIKGYDYDTYTFYAKKGQKVHVSISNEGADTYLFGPGIDDSVDLSRYSPELDSHGQYSLPASGKYELRVLQTRNDARKNKTKKYNVDIQIK | 5.26 ± 0.85 h | 6.18 ± 1.5 h | 6.58 ± 0.55 h | 5.92 ± 0.064 h | 5.41 ± 2.6 h | 3.4 ± 0.059 h | 5.32 ± 0.57 h | 9.98 ± 4 h | 6.12 ± 0.28 h | 11 ± 4.1 h | 4.9 ± 0.38 h | 11.1 ± 0.15 h
4 | MKIKTRFAPSPTGYLHVGGARTALYSWLFARNHGGEFVLRIEDTDLERSTPEAIEAIMDGMNWLSLEWDEGPYYQTKRFDRYNAVIDQMLEEGTAYKCYCSKERLEALREEQMAKGEKPRYDGRCRHSHEHHADDEPCVVRFANPQEGSVVFDDQIRGPIEFSNQELDDLIIRRTDGSPTYNFCVVVDDWDMEITHVIRGEDHINNTPRQINILKALKAPVPVYAHVSMINGDDGKKLSKRHGAVSVMQYRDDGYLPEALLNYLVRLGWSHGDQEIFTREEMIKYFTLNAVSKSASAFNTDKLLWLNHHYINALPPEYVATHLQWHIEQENIDTRNGPQLADLVKLLGERCKTLKEMAQSCRYFYEDFAEFDADAAKKHLRPVARQPLEVVRDKLAAITDWTAENVHHAIQATADELEVGMGKVGMPLRVAVTGAGQSPALDVTVHAIGKTRSIERINKALDFIAERENQQ | 5.79 ± 0.64 h | 5.2 ± 0.2 h | 5.5 ± 0.56 h | 5.42 ± 0.13 h | 5.06 ± 0.56 h | 3.22 ± 0.47 h | 6.28 ± 0.22 h | 12.5 ± 0.98 h | 5.34 ± 0.34 h | 9.3 ± 0.16 h | 6.23 ± 0.25 h | 12.2 ± 0.93 h
5 | MKILLIEDNQRTQEWVTQGLSEAGYVIDAVSDGRDGLYLALKDDYALIILDIMLPGMDGWQILQTLRTAKQTPVICLTARDSVDDRVRGLDSGANDYLVKPFSFSELLARVRAQLRQHHALNSTLEISGLRMDSVSHSVSRDNISITLTRKEFQLLWLLASRAGEIIPRTVIASEIWGINFDSDTNTVDVAIRRLRAKVDDPFPEKLIATIRGMGYSFVAVKK | 5.88 ± 0.19 h | 4.67 ± 0.22 h | 5.28 ± 1 h | 4.77 ± 0.42 h | 4.91 ± 0.52 h | 2.99 ± 0.052 h | – | 10.4 ± 0.76 h | 4.11 ± 0.2 h | 7.422 ± 0.042 h | 5.64 ± 0.063 h | 11.9 ± 0.75 h
